This is an account of results in publication doi:10.1101/774737.

This test concerns the target dynein intermediate chain (DIC), endogenous, human iPSC-derived motor neurons (human (endogenous in iPSC-derived motor neurons)) (UniProt O14576). In words: proximity ligation.
UniProt O14576, sequence (O14576 whole entry): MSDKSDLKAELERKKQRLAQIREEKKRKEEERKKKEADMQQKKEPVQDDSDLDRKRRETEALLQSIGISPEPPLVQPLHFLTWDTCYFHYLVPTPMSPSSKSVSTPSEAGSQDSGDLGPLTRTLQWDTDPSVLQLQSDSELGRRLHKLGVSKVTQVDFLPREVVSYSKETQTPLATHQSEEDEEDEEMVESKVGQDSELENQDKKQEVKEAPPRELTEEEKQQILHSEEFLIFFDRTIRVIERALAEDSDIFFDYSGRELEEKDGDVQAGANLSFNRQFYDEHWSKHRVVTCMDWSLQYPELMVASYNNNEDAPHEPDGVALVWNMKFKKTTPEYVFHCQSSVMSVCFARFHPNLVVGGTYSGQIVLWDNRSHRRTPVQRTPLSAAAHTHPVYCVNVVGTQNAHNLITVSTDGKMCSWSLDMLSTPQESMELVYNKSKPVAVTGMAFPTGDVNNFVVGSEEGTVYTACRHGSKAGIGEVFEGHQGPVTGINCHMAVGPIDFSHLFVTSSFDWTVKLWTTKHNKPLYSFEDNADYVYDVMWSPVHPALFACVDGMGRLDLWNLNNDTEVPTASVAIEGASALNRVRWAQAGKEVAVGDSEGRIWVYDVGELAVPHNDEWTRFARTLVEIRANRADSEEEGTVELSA

“CRMP4, endogenous, human iPSC-derived motor neurons (from UniProt Q14195 1-570) (natural protein)” showed a PLA puncta (C9orf72 iPSC-derived MN distal axons, without peptides) of 8.9.
